The source of these data is patent US20250368745A1 (published 2025).

Numbering of substitutions follows the chain as printed. Numbers in names are those of the source.

Sequences and labels used below:
T1: human IL-18BP (interleukin-18 binding protein, isoform A) (human, UniProt O95998 31-194)
T1 construct: cell assays used Sino Biological 10357-H08H; PBMC assay 1 relies on endogenous IL-18BP; UniProt number is printed as 095998; also called hIL-18BP
T1 sequence: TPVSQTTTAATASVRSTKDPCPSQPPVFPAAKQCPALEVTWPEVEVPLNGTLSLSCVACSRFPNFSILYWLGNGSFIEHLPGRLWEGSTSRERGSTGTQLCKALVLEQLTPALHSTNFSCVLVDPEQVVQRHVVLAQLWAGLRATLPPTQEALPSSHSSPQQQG

T2: cynomolgus IL-18BP (cynomolgus monkey)
T2 construct: Generated in-house; also called cyIL-18BP; cyno IL-18BP
T2 chain: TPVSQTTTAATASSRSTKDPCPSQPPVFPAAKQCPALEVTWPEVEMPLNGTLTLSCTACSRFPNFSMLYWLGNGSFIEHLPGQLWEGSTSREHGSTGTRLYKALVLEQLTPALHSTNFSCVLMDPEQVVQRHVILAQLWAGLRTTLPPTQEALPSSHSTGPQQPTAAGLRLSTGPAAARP

B1: SA313a (antibody, human IgG1, V domains shown)
VH: QVQLQESGPGLVKPSQTLSLTCTVSGYSITSDYNAHWIRQPPGKGLEWIGYIHYSGSTMYNPSLKSRVTISRDTSKNQFSLKLSSVTAADTAVYYCARNFGSIYVNYFDYWGQGTLVTVSS
VL: EIVLTQSPATLSLSPGERATLSCSASSSVSYMYWYQQKPGQAPRPLIYRTSNLASGIPARFSGSGSGTDFTLTISSLEPEDFAVYYCQQYHSYPTFGGGTKVEIK
notes: humanized; human IgG1 (suffix a), kappa
B2: SA317a (antibody, human IgG1, V domains shown)
VH: B1 VH with M59L, F100Y
VL: B1 VL
notes: as for B1
B3: SA315a (antibody, human IgG1, V domains shown)
VH: B1 VH with S57Q
VL: B1 VL
notes: as for B1
B4: SA316a (antibody, human IgG1, V domains shown)
VH: B1 VH with M59Y, F100Y
VL: B1 VL
notes: as for B1
B5: SA311a (antibody, human IgG1, V domains shown)
VH: B1 VH with S57Q, F100Y
VL: B1 VL
notes: as for B1
B6: SA312a (antibody, human IgG1, V domains shown)
VH: B1 VH with S31Q, F100Y
VL: B1 VL
notes: as for B1
B7: SA301a heavy chain variant N33bM, C34S (antibody, human IgG1, V domains shown)
VH: B1 VH with N34M, A35S, M59N, F100Y
VL: B1 VL
notes: library variant, human IgG1/kappa, from supernatant
B8: heavy chain library variant C34L (antibody, V domains shown)
VH: B1 VH with A35L, M59N, F100Y
VL: B1 VL
B9: heavy chain library variant C34K (antibody, V domains shown)
VH: B1 VH with A35K, M59N, F100Y
VL: B1 VL
B10: heavy chain library variant C34P (antibody, V domains shown)
VH: B1 VH with A35P, M59N, F100Y
VL: B1 VL
B11: heavy chain library variant C34Q (antibody, V domains shown)
VH: B1 VH with A35Q, M59N, F100Y
VL: B1 VL
B12: heavy chain library variant C34R (antibody, V domains shown)
VH: B1 VH with A35R, M59N, F100Y
VL: B1 VL
B13: heavy chain library variant C34D (antibody, V domains shown)
VH: B1 VH with A35D, M59N, F100Y
VL: B1 VL
B14: heavy chain library variant C34H (antibody, V domains shown)
VH: B1 VH with A35H, M59N, F100Y
VL: B1 VL
B15: heavy chain library variant C34F (antibody, V domains shown)
VH: B1 VH with A35F, M59N, F100Y
VL: B1 VL
B16: heavy chain library variant C34I (antibody, V domains shown)
VH: B1 VH with A35I, M59N, F100Y
VL: B1 VL
B17: heavy chain library variant C34E (antibody, V domains shown)
VH: B1 VH with A35E, M59N, F100Y
VL: B1 VL
B18: SA301a heavy chain variant N33bS, C34S (antibody, human IgG1, V domains shown)
VH: B1 VH with N34S, A35S, M59N, F100Y
VL: B1 VL
notes: as for B7
B19: SA301a heavy chain variant N33bV, C34S (antibody, human IgG1, V domains shown)
VH: B1 VH with N34V, A35S, M59N, F100Y
VL: B1 VL
notes: as for B7
B20: SA301a heavy chain variant N33bP, C34S (antibody, human IgG1, V domains shown)
VH: B1 VH with N34P, A35S, M59N, F100Y
VL: B1 VL
notes: as for B7
B21: SA301a heavy chain variant N33bY, C34S (antibody, human IgG1, V domains shown)
VH: B1 VH with N34Y, A35S, M59N, F100Y
VL: B1 VL
notes: as for B7
B22: SA302a heavy chain variant N33bT, C34A (antibody, human IgG1, V domains shown)
VH: B1 VH with N34T, M59N, F100Y
VL: B1 VL
notes: as for B7
B23: heavy chain library variant C34N (antibody, V domains shown)
VH: B1 VH with A35N, M59N, F100Y
VL: B1 VL
notes: position 34 variant, human IgG1/kappa, from supernatant; C is the SA44a residue
B24: SA302a heavy chain variant N33bM, C34A (antibody, human IgG1, V domains shown)
VH: B1 VH with N34M, M59N, F100Y
VL: B1 VL
notes: as for B7
B25: SA302a heavy chain variant N33bH, C34A (antibody, human IgG1, V domains shown)
VH: B1 VH with N34H, M59N, F100Y
VL: B1 VL
notes: as for B7
B26: SA301a heavy chain variant N33bT, C34S (antibody, human IgG1, V domains shown)
VH: B1 VH with N34T, A35S, M59N, F100Y
VL: B1 VL
notes: as for B7
B27: SA302a heavy chain variant N33bF, C34A (antibody, human IgG1, V domains shown)
VH: B1 VH with N34F, M59N, F100Y
VL: B1 VL
notes: as for B7
B28: SA301a heavy chain variant N33bQ, C34S (antibody, human IgG1, V domains shown)
VH: B1 VH with N34Q, A35S, M59N, F100Y
VL: B1 VL
notes: as for B7
B29: SA302a heavy chain variant N33bK, C34A (antibody, human IgG1, V domains shown)
VH: B1 VH with N34K, M59N, F100Y
VL: B1 VL
notes: as for B7
B30: SA302a heavy chain variant N33bI, C34A (antibody, human IgG1, V domains shown)
VH: B1 VH with N34I, M59N, F100Y
VL: B1 VL
notes: as for B7
B31: SA302a heavy chain variant N33bQ, C34A (antibody, human IgG1, V domains shown)
VH: B1 VH with N34Q, M59N, F100Y
VL: B1 VL
notes: as for B7

The first experiment addresses T1, human IL-18BP (interleukin-18 binding …). In words: BLI, affinity column of Table E8. (Biolayer interferometry detects binding as a change in optical thickness at a sensor tip.)
On to B1, for which the Kd was determined as 0.272 nM.
Molecule B2 had a Kd of 0.329 nM.
On to B3, for which the Kd worked out at 0.039 nM.
B4: the Kd was determined as 0.228 nM.
B5 showed a Kd of 0.243 nM.
Regarding B6, the Kd came out at 0.117 nM.

The next experiment shares this target. The experiment in a line: cell-based or functional assay.
Turning to B1, the “EC50 in PBMC Assay 1 (endogenous IL-18BP), IFNγ” value came out at 1.2 nM and the “EC50 in PBMC Assay 2 (precomplexed IL-18BP), IFNγ” value amounted to 0.71 nM.
For B2, the “EC50 in PBMC Assay 1 (endogenous IL-18BP), IFNγ” value stood at 0.4 nM and the “EC50 in PBMC Assay 2 (precomplexed IL-18BP), IFNγ” value stood at 0.45 nM.
On to B3, for which the “EC50 in PBMC Assay 1 (endogenous IL-18BP), IFNγ” value was 0.5 nM and the “EC50 in PBMC Assay 2 (precomplexed IL-18BP), IFNγ” value is 0.49 nM.
Regarding B4, the “EC50 in PBMC Assay 1 (endogenous IL-18BP), IFNγ” value amounted to 0.6 nM and the “EC50 in PBMC Assay 2 (precomplexed IL-18BP), IFNγ” value came out at 0.64 nM.
On to B5, for which the “EC50 in PBMC Assay 1 (endogenous IL-18BP), IFNγ” value stood at 0.6 nM and the “EC50 in PBMC Assay 2 (precomplexed IL-18BP), IFNγ” value was found to be 1.24 nM.
The like results for B6 were, in that order, 2.1 nM and 0.74 nM.

The target is the same in the next experiment. In words: BLI (Octet), mAb on AHC biosensor.
With B1, the Kd is 0.272 nM.
Still for that read-out and setting: to B2 belongs 0.329 nM; to B3, 0.039 nM.
B4 registered a Kd of 0.228 nM.
In turn, B5 returned a Kd of 0.243 nM.
B6: the Kd worked out at 0.117 nM.

A further experiment shares this target. In words: BLI single-concentration screen, apparent KD.
On to B7, for which the Kd is 1.9 nM.
In the case of B8, the Kd was 0.4 nM.
With B9, the Kd stood at 1 nM.
B10: the Kd was determined as 20.6 nM.
Same read-out and setting: to B11 belongs 0.6 nM; to B12, 1.8 nM; to B13, 0.5 nM.
Consider B14, for which the Kd was 0.4 nM.
Take B15: the Kd came to 0.6 nM.
Still for that read-out and setting: to B16 belongs 1 nM; to B17, 0.9 nM; to B18, 1.4 nM.
Consider B19, for which the Kd worked out at 0.4 nM.
Regarding B20, the Kd came to 2.5 nM.
For the molecule B21, the Kd is 1.2 nM.
Still for that read-out and setting: to B22 belongs 0.1 nM; to B23, 1 nM; to B24, 0.9 nM.
In the case of B25, the Kd came out at 0.8 nM.
For the molecule B26, the Kd was 0.3 nM.
On the same count and under the same terms, the result for B27 reads 1.5 nM; that for B28, 1.9 nM.
On to B29, for which the Kd came out at 0.3 nM.
As for B30, the Kd stood at 0.6 nM.
Take B31: the Kd is 1.8 nM.

The next experiment concerns the target T2, cynomolgus IL-18BP. In words: BLI single-concentration screen, apparent KD.
B7: the Kd stood at 1.4 nM.
Take B8: the Kd worked out at 0.3 nM.
On the same count and under the same terms, to B9 belongs 0.5 nM; to B10, 9.8 nM.
With B11, the Kd worked out at 0.4 nM.
Turning to B12, the Kd turned out to be 0.6 nM.
B13: the Kd was found to be 0.4 nM.
On to B14, for which the Kd is 0.2 nM.
On the same count and under the same terms, the result for B15 reads 0.5 nM.
For the molecule B16, the Kd is 0.6 nM.
For B17, the Kd is 0.5 nM.
Still for that read-out and setting: to B18 belongs 1 nM; to B19, 0.3 nM.
In the case of B20, the Kd came to 1.3 nM.
On to B21, for which the Kd stood at 0.9 nM.
Turning to B22, the Kd worked out at 0.3 nM.
On to B23, for which the Kd came out at 0.6 nM.
For B24, the Kd came out at 1 nM.
As for B25, the Kd worked out at 0.6 nM.
Turning to B26, the Kd amounted to 0.4 nM.
Take B27: the Kd is 1.4 nM.
Regarding B28, the Kd came to 1.1 nM.
Turning to B29, the Kd is 0.4 nM.
For B30, the Kd was found to be 0.4 nM.
As for B31, the Kd was determined as 1.6 nM.
